Measurements as given in patent US20060019241A1, “Na+ and CI-coupled transport system for endogenous opioid peptides” (priority 2004, published 2006).
Entries after “also recorded” stand apart in the source; their conditions may differ. Ends that are not written are not given here.

B1: tyrosine melanocyte-stimulating hormone inhibitory factor 1 (Tyr-MIF-1; Tyr-Pro-Leu-Gly-NH2) (peptide)
peptide: YPLG-NH2
B2: Dynorphin B (1-9) (Tyr-Gly-Gly-Phe-Leu-Arg-Arg-Gln-Phe) (peptide)
peptide: YGGFLRRQF

Tests used:
[1] = system: deltorphin II transport system in Tat-ARPE-19 cells; assay: Inhibition of [^3H]deltorphin II uptake in Tat-ARPE-19 cells; assay type: cell-based, human; details: [^3H]deltorphin II 50 nM; for competition with deltorphin for the uptake process (in words): Tat-ARPE-19 / RPE cells, compound 1 mM; for [^3H] Deltorphin II uptake / [^3H] Deltorphin II uptake (%) of control: Tat-ARPE-19 cells, 30 minutes, NaCl, inhibitor 1 mM; for [^3H] Deltorphin II uptake (%) of control: control = 100
Excerpt: Stable transfection of ARPE-19 cells with pcDNA-Tat cDNA. The pGEM2-Tat cDNA construct contained as the insert a 295 basepair (bp) fragment encoding the first exon of HIV-1 Tat gene joined to a 145 bp pET3A transcription terminator. The entire insert (440 bp) was removed from the construct by digestion with PstI and EcoRI and ligated into the multiple cloning region of pcDNA3.1 (−) vector at PstI/EcoRI site so that the insert is downstream of the cytomegalovirus (CMV) promoter. The resultant construct was sequenced to confirm the orientation of the insert. This construct was electroporated into ARPE-19 cells and the stably transfected cell clones were isolated in the presence of Geneticin (G418). To serve as a control, empty pcDNA3.1 vector was electroporated into ARPE-19 cells in an identical manner and the clones harboring the vector were selected by G418 resistance.
Uptake measurements in control ARPE-19 cells and Tat-ARPE-19 cells. Control ARPE-19 cells and Tat-ARPE-19 cells were maintained in 75-cm^2 culture flasks in Dulbecco's modified Eagle's medium/F12 medium (1:1, volume/volume (v/v)) in the presence of fetal bovine serum (10%) and G418 (100 μg/ml). For uptake measurements, cells were released by trypsin treatment and seeded in 24-well culture plates at an initial density of 0.1×10^6 cells/well. The culture medium was replaced with fresh medium on the second day following the initial seeding and uptake measurements were made on the third day. […] After incubation at 37° C. for a desired time, uptake was terminated by the removal of the medium and washing of the cells with ice-cold uptake buffer. The cells were then dissolved in 1% SDS in 0.2 M NaOH and used for measurement of radioactivity. The uptake buffer in most experiments was 25 mM Hepes/Tris (pH 7.5), containing 140 mM NaCl, 5.4 mM KCl, 1.8 mM CaCl2, 0.8 mM MgSO4 and 5 mM glucose.
When the influence of Na^+ on the uptake process was investigated, the concentration of NaCl in the uptake buffer was adjusted, as desired, by isoosmotically replacing NaCl with N-methyl-D-glucamine chloride. To assess the influence of Cl^− on the uptake process, the composition of the uptake medium was modified by replacing KCl and CaCl2 with equimolar concentrations of potassium gluconate and calcium gluconate and the concentration of NaCl was adjusted, as desired, by iso-osmotically replacing NaCl with sodium gluconate. Saturation kinetics were analysed by fitting the data to the Michaelis-Menten equation. The Michaelis-Menten constant, Kt, was calculated by non-linear regression analysis and then confirmed by linear regression. Na^+- and Cl^−-activation kinetics were analyzed by fitting the data to the Hill equation and the Hill coefficients for Na^+ and Cl^− (h; the number of Na^+ and Cl^− ions involved in the activation process) and the K0.5 values (the concentration of Na^+ and Cl^−-needed for half-maximal activation) were determined from the analysis. Again, these constants were first calculated by non-linear regression methods and subsequently confirmed by linear regression methods. Experiments were repeated three times in duplicate and the results are given as means±S.E.M.
Substrate specificity of the deltorphin transport system. […] These peptides consisted of 4-13 amino acids.
Relative affinities of endogenous opioid peptides for the transport system.

[2] = target: Na+- and Cl--coupled transport system for endogenous opioid peptides (human cell lines ARPE-19, Tat-ARPE-19 and SK-N-SH) (human); assay: cell-based or functional assay

| Molecule | competition with deltorphin for the uptake process (in words) [1] | [^3H] Deltorphin II uptake [1] | [^3H] Deltorphin II uptake (%) of control [1] | IC50 for inhibition of [3H]deltorphin II uptake in Tat-ARPE-19 cells [2] | [3H]deltorphin II (50 nM) uptake in Tat-ARPE-19 cells, 30 min, NaCl, inhibitor 1 mM (pmol/mg protein/30 min) [2] | [3H]deltorphin II uptake (%) in Tat-ARPE-19 cells, inhibitor 1 mM [2] | also measured |
| --- | --- | --- | --- | --- | --- | --- | --- |
| NCCC(=O)N[C@@H](Cc1cnc[nH]1)C(=O)O [Carnosine, β-Ala-His] | did not compete | 6.21 ± 0.08 pmol/mg protein/30 min | 80% | – | – | – | – |
| [des-Tyr1]Met-enkephalin (Gly-Gly-Phe-Met) (peptide) | – | – | – | 31.9 mM | 0.74 | 10 % of control | – |
| N[C@@H](Cc1ccc(O)cc1)C(=O)O [L-Tyrosine] | did not compete | 7.52 ± 0.15 pmol/mg protein/30 min | 97% | – | – | – | – |
| Tyr-Pro-Leu-Gly-NH2 (YPLG-NH2) [Tyr-MIF-1] | no or little inhibition; also recorded: not recognized | 9.20 ± 0.15 pmol/mg protein/30 min | 119% | – | – | – | – |
| Gly-Gly-Gly (peptide) | – | – | – | – | 9.68 | 125 % of control | – |
| β-Lipotropin (Tyr-Gly-Gly-Phe) (peptide) | – | – | – | – | 6.26 | 81 % of control | – |
| β-Casomorphin (Tyr-Pro-Phe-Pro-Gly-Pro-Ile) (peptide) | – | – | – | – | 2.03 | 26 % of control | – |
| Dynorphin A (1-7) (Tyr-Gly-Gly-Phe-Leu-Arg-Arg) (peptide) | – | – | – | 7.3 mM | 0.1 | 1 % of control | [3H]deltorphin II (50 nM) uptake in control ARPE-19 cells, 30 min, NaCl, opioid peptide 1 mM (pmol/mg protein/30 min) [2]: 0.05; [3H]deltorphin II uptake (%) in control ARPE-19 cells, opioid peptide 1 mM [2]: 5 % of control; affinity from concentration-dependent inhibition of [3H]deltorphin II (25 nM) uptake in SK-N-SH cells [2]: 4.6 µM |
| Dynorphin A (1-6) (Tyr-Gly-Gly-Phe-Leu-Arg) (peptide) | – | – | – | 4.2 mM | 0.12 | 2 % of control | [3H]deltorphin II (50 nM) uptake in control ARPE-19 cells, 30 min, NaCl, opioid peptide 1 mM (pmol/mg protein/30 min) [2]: 0.06; [3H]deltorphin II uptake (%) in control ARPE-19 cells, opioid peptide 1 mM [2]: 5 % of control; affinity from concentration-dependent inhibition of [3H]deltorphin II (25 nM) uptake in SK-N-SH cells [2]: 3.5 µM |
| Met-enkephalinamide (Tyr-Gly-Gly-Phe-Met-NH2) (peptide) | – | – | – | 13 mM | 0.69 | 9 % of control | – |
| NCC(=O)O [Glycine] | did not compete | 7.23 ± 0.14 pmol/mg protein/30 min | 93% | – | – | – | – |
| O=C(O)[C@@H]1CCCN1 [L-Proline] | did not compete | 7.31 ± 0.20 pmol/mg protein/30 min | 94% | – | – | – | – |
| Carnosine (β-Ala-His) (peptide) | – | – | – | – | 6.21 | 80 % of control | – |
| YPFPGPI [β-Casomorphin] | – | 2.03 ± 0.05 pmol/mg protein/30 min | 26% | – | – | – | – |
| [Arg6, Gly7, Leu8]Met-enkephalin (Tyr-Gly-Gly-Phe-Met-Arg-Gly-Leu) (peptide) | – | – | – | 2.5 mM | 0.09 | 1 % of control | [3H]deltorphin II (50 nM) uptake in control ARPE-19 cells, 30 min, NaCl, opioid peptide 1 mM (pmol/mg protein/30 min) [2]: 0.04; [3H]deltorphin II uptake (%) in control ARPE-19 cells, opioid peptide 1 mM [2]: 4 % of control |
| Gly-Gly-Phe-Met [[des-Tyr^1] Met-enkephalin] | marked inhibition | 0.74 ± 0.03 pmol/mg protein/30 min | 10% | – | – | – | – |
| [Arg6, Phe7]Met-enkephalin (Tyr-Gly-Gly-Phe-Met-Arg-Phe) (peptide) | – | – | – | 9.1 mM | 0.11 | 1 % of control | [3H]deltorphin II (50 nM) uptake in control ARPE-19 cells, 30 min, NaCl, opioid peptide 1 mM (pmol/mg protein/30 min) [2]: 0.05; [3H]deltorphin II uptake (%) in control ARPE-19 cells, opioid peptide 1 mM [2]: 4 % of control |
| Tyr-Pro (peptide) | – | – | – | – | 5.72 | 74 % of control | – |
| YGGFMK [α-Neo-endorphin (1-6)] | marked inhibition | 0.19 ± 0.01 pmol/mg protein/30 min | 3% | – | – | – | – |
| Leu-enkephalin (Tyr-Gly-Gly-Phe-Leu) (peptide) | – | – | – | 9.5 mM | 0.15 | 2 % of control | affinity from concentration-dependent inhibition of [3H]deltorphin II (25 nM) uptake in SK-N-SH cells [2]: 7.8 µM |
| α-Neo-endorphin (1-6) (Tyr-Gly-Gly-Phe-Met-Lys) (peptide) | – | – | – | – | 0.19 | 3 % of control | – |
| Met-enkephalin (Tyr-Gly-Gly-Phe-Met) (peptide) | – | – | – | 33.2 mM | 0.5 | 6 % of control | [3H]deltorphin II (50 nM) uptake in control ARPE-19 cells, 30 min, NaCl, opioid peptide 1 mM (pmol/mg protein/30 min) [2]: 0.06; [3H]deltorphin II uptake (%) in control ARPE-19 cells, opioid peptide 1 mM [2]: 5 % of control; affinity from concentration-dependent inhibition of [3H]deltorphin II (25 nM) uptake in SK-N-SH cells [2]: 10.7 µM |
| Tyr-Pro | did not compete | 5.72 ± 0.09 pmol/mg protein/30 min | 74% | – | – | – | – |
| Tyr-Gly-Gly-Phe (YGGF; printed: Tyr-Gly-Gly-Phe) [β-Lipotropin] | no or little inhibition | 6.26 ± 0.31 pmol/mg protein/30 min | 81% | – | – | – | – |
| Tyr-Gly-Gly-Phe-Met-NH2 (YGGFM; printed: Tyr-Gly-Gly-Phe-Met-) [Met-enkephalinamide] | marked inhibition | 0.69 ± 0.01 pmol/mg protein/30 min | 9% | – | – | – | – |
| Gly-Gly-Ile (peptide) | – | – | – | – | – | – | stimulation of deltorphin II uptake in SK-N-SH cells [2]: 6 to 8 fold |
| B1 | – | – | – | – | 9.2 | 119 % of control | – |
| B2 | – | – | – | 3.1 mM | 0.08 | 1 % of control | [3H]deltorphin II (50 nM) uptake in control ARPE-19 cells, 30 min, NaCl, opioid peptide 1 mM (pmol/mg protein/30 min) [2]: 0.06; [3H]deltorphin II uptake (%) in control ARPE-19 cells, opioid peptide 1 mM [2]: 5 % of control |
